Experimental data taken from article PMC8426278.

Target: GST-G1NC_(long) (GST-fused complete cytosolic domain of rat GIRK1, a.a. 1-84, 184-501) (rat) (UniProt P63251)
Test: pull-down

Gβ1(I80N)γ2 (bovine Gβ1 I80N co-translated with bovine Gγ2) (from UniProt P62871 1-340; P63212 1-71) (complex)
binding as % of wt Gβγ: 89.6%
